B1: PTENz7-87-biotin (structured_DNA)
DNA: CGGAATTCCGAGCGTGGGCGTGGTCATACCGCGCCTATCGAACTCGCCACTCGCGTGCAGCTCTGTGTAGGTACGCCCACGCTCGAG
B2: Dual aptazyme PTENz7-70 (structured_DNA)
DNA: GTGGGTAGGGCGGGTTGGCGGTCATACCGCGCCTATCGAACTCGCCACTCGCGTGCAGCTCTGTGTAGGT

What was measured:
[1] = biological target: T1, PTEN (endogenous, human tissue sections) (human, UniProt P60484 1-403); assay: histochemistry (avidin-biotin peroxidase); normal endometrium; TKT buffer; Fixed tissue sections; 5 uM aptamer in TKT (25 mM Tris-HCl pH 8, 20 mM KCl, 200 mM NaCl, 0.05% Triton X-100, 0.1% DMSO), 100 uM hemin for DNAzyme constructs, BSA; 3 h at room temperature or overnight at 4 C (25 C overnight also stated); conditions: protein: native; label: 5' biotin; stem-loop; 13 nt reverse-complementary primer regions form the stem
T1 sequence (P60484 whole entry): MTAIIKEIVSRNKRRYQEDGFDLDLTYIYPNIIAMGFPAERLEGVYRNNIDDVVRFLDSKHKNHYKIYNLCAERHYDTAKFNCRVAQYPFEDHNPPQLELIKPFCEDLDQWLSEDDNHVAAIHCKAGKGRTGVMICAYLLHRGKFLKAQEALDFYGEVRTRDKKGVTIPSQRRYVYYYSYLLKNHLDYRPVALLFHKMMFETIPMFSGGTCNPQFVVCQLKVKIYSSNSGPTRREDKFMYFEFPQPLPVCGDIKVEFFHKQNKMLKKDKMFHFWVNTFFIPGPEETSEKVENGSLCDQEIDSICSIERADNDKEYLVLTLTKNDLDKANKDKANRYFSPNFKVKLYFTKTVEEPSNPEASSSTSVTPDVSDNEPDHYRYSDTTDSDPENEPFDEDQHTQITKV

[2] = biological target: T1, PTEN (endogenous, human tissue sections); assay: histochemistry (PS2.M peroxidase, DAB); hemin, K+; endometrium and colon; same scoring as MAb 6H2 in 60 samples; Fixed tissue sections; 5 uM aptamer in TKT (25 mM Tris-HCl pH 8, 20 mM KCl, 200 mM NaCl, 0.05% Triton X-100, 0.1% DMSO), 100 uM hemin for DNAzyme constructs, BSA; 3 h at room temperature or overnight at 4 C (25 C overnight also stated); conditions: protein: native; 5' PS2.M G-quadruplex; stem linker removed

Binder | binding result [1] | binding result [2]
B1 | binds | –
B2 | – | binds
